Source: patent US10954305B2 (Immunomedics, Inc., priority 2016, dated 2021)

Columns and labels:
BxPC-3 = test: ADCC of hRS7-ADCs vs hRS7 IgG; type: cell-based, human; conditions: 33.3 nM; effector to target ratio 100:1
Protocol: The ADCC activity of various hRS7-ADC conjugates was determined in comparison to hRS7 IgG (FIG. 3). PBMCs were purified from blood purchased from the Blood Center of New Jersey. A Trop-2-positive human pancreatic adenocarcinoma cell line (BxPC-3) was used as the target cell line with an effector to target ratio of 100:1. […] All were used at 33.3 nM.

[1] = target: T1, human neonatal receptor (FcRn) (Homo sapiens, UniProt P55899); test: surface plasmon resonance binding (BIACORE); conditions: three independent runs
T1 construct: made in house
Protocol: (§1) Briefly, rhTrop-2/TACSTD2 (Sino Biological, Inc.) or recombinant human neonatal receptor (FcRn), produced as described (Wang et al., 2011, Drug Metab Dispos 39:1469-77), was immobilized with an amine coupling kit (GE Healthcare; Cat. No. BR-1000-50) on a CM5 sensor chip (GE Healthcare; Cat. #BR-1000-12) following manufacturer's instructions for a low-density chip. […] Each set would make up a separate run on the BIACORE (BIACORE-X; Biacore Inc., Piscataway, N.J.) and data were analyzed using BIAevaluation Software (Biacore Inc., v4.1). Analysis was performed with a 1:1 (Langmuir) Binding Model and Fit, using all five concentration points for each sample run to determine the best fit (lowest χ^2 value). The KD value was calculated using the formula KD=kd1/ka1, where kd1 is the dissociation rate-constant and ka1 is the association-rate constant.

rhTrop-2/TACSTD2 = target: T2, rhTrop-2/TACSTD2 (Homo sapiens, UniProt P09758); test: surface plasmon resonance binding (BIACORE); conditions: three independent runs
T2 construct: purchased Sino Biological, Inc
T2 sequence (P09758 27-323): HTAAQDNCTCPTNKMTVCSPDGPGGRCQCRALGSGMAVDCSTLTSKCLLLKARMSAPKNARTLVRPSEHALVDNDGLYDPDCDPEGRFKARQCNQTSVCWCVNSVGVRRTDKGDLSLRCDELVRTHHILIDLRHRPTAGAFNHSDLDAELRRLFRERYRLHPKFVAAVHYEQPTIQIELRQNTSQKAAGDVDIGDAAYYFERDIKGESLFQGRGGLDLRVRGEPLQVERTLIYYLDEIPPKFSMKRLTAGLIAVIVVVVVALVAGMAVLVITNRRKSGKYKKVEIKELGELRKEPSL
Protocol: as §1

[2] = tolerability in Cynomolgus monkeys; type: in vivo
Protocol: FIG. 6C. […] All animals were bled on day −1, 3, and 6. Four monkeys were bled on day 11 in the 0.96 mg/kg group, 3 in the 1.92 mg/kg group. Changes in neutrophil counts in Cynomolgus monkeys.
FIG. 6D. […] All animals were bled on day −1, 3, and 6. Four monkeys were bled on day 11 in the 0.96 mg/kg group, 3 in the 1.92 mg/kg group. Changes in platelet counts in Cynomolgus monkeys.

[3] = test system: diverse metastatic solid cancers; test: Phase I/II clinical trial of IMMU-132, all tumor types; type: in vivo, human
Protocol: Dose escalation followed a standard 3+3 scheme with 4 planned dose levels and dose delay or reduction allowed. Twenty-five patients (52-60 years old, 3 median prior chemotherapy regimens) were treated at dose levels of 8 (N=7), 10 (N=6), 12 (N=9), and 18 (N=3) mg/kg. […] Lower doses were acceptable for extended treatment with no treatment-related grade 4 toxicities and grade 3 toxicities limited to fatigue (N=3), neutropenia (N=2), diarrhea (N=1), and leukopenia (N=1). […] No pre-selection of patients based on tumor Trop-2 expression was undertaken.
The trial was designed as a standard 3+3 Phase I design, starting at a dose of 8 mg/kg per injection, with dosages given weekly for 2 weeks in a 3-week treatment cycle.
Prior to the start of each infusion, most patients received acetaminophen, anti-histamines (H1 and H2 blockers), and dexamethasone. Prophylactic use of antiemetics or anti-diarrheal medications was prohibited. Therapy consisted of 2 consecutive doses given on days 1 and 8 of a 3-week treatment cycle, with the intent to allow patients to continue treatment for up to 8 cycles (i.e., 16 treatments) unless there was unacceptable toxicity or progression. Patients showing disease stabilization or response after 8 cycles could continue treatments.

[4] = Phase I/II clinical trial of IMMU-132, pharmacokinetics; conditions: for serum hRS7 IgG, Max / serum hRS7 IgG, Min / serum intact ADC, Max / serum intact ADC, Min / serum hRS7 IgG, Mean / serum intact ADC, Mean: 0.5 h after first dose
Protocol: SN-38 was measured by HPLC.
Blood samples were taken within ˜30 min from the end of the infusion (e.g., peak) and then prior to each subsequent injection (e.g., trough). […] Serum samples from seven patients also were assayed for SN-38 content, both total (representing SN-38 bound to the IgG and free) and free SN-38 (i.e., unbound SN-38).

MDA-MB-468 TNBC tumors = test: MDA-MB-468 TNBC xenograft therapy; type: in vivo, nude mice; conditions: one animal each, tumors progressed after irinotecan
Text: The size of the tumors in the individual animals of this group from the onset of tumor transplantation is given.

T1 sequence (P55899 24-297 limits assumed): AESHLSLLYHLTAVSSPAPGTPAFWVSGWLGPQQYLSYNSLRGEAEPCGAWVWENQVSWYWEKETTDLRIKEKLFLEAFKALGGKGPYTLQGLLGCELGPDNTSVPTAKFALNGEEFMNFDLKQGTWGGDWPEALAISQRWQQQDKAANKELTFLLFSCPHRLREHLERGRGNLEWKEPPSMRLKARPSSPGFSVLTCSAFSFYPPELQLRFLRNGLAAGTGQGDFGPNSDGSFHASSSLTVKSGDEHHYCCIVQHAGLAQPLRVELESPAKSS
T1 sequence (P61769 21-119 partner): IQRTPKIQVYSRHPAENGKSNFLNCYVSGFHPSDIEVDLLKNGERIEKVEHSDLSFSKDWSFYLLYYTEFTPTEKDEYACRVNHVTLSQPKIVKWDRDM

## hRS7 IgG
BxPC-3
  specific lysis (ADCC): 8.5%
[1]
  Kd: 0.0924 ± 0.0057 µM
rhTrop-2/TACSTD2
  Kd: 0.00051 ± 4e-05 µM

## IMMU-132
[2]; cynomolgus monkey, in vivo
  MTD: 2×0.96 and 1.92
  human equivalent dose of MTD: 2×0.3 to 0.6
[2]; cynomolgus monkey, in vivo, 0.96 mg/kg
  blood counts: only transient decreases in blood counts
[2]; mild and reversible toxicity
  tolerated dose: 0.96 mg/kg/dose
[3]; 12 patients
  duration of maintained disease control: 16-36 weeks
[3]; 24 assessable patients, Phase I
  long-term stable disease: Over 80%
[3]; 48 assessable patients (excluding PDC)
  disease response: 79%
[3]; 48 patients
  TTP, range: 6.0 to 51.4 wks
  time to progression (TTP): ≥ 12.6 wks
[3]; Phase I, 25 patients
  patients with partial response: 3
  patients with progression (PD): 7
  patients with stable disease: 15
[3]; human, in vivo
  responses or disease stabilization after prior topoisomerase I inhibitor: 7 of 9
[3]; of 48 assessable patients
  PD: 14
  PR: 7
[4]; 8 mg/kg
  serum hRS7 IgG, Max: 249.0 µg/mL
  serum hRS7 IgG, Min: 96.0 µg/mL
  serum intact ADC, Max: 169.3 µg/mL
  serum intact ADC, Min: 95.0 µg/mL
[4]; 8 mg/kg, N 7
  serum hRS7 IgG, Mean: 193.1 µg/mL
  serum intact ADC, Mean: 141.5 µg/mL
[4]; 10 mg/kg
  serum hRS7 IgG, Max: 285.85 µg/mL
  serum hRS7 IgG, Min: 152.00 µg/mL
  serum intact ADC, Max: 237.39 µg/mL
  serum intact ADC, Min: 144.00 µg/mL
[4]; 10 mg/kg, N 5
  serum hRS7 IgG, Mean: 203.35 µg/mL
  serum intact ADC, Mean: 185.77 µg/mL
[4]; 12 mg/kg
  serum hRS7 IgG, Max: 400.0 µg/mL
  serum hRS7 IgG, Min: 168.9 µg/mL
  serum intact ADC, Max: 311.0 µg/mL
  serum intact ADC, Min: 98.0 µg/mL
[4]; 12 mg/kg, N 9
  serum hRS7 IgG, Mean: 239.2 µg/mL
  serum intact ADC, Mean: 183.3 µg/mL
[4]; 18 mg/kg
  serum hRS7 IgG, Max: 499.00 µg/mL
  serum hRS7 IgG, Min: 321.48 µg/mL
  serum intact ADC, Max: 423.00 µg/mL
  serum intact ADC, Min: 162.80 µg/mL
[4]; 18 mg/kg, N 3
  serum hRS7 IgG, Mean: 409.16 µg/mL
  serum intact ADC, Mean: 258.27 µg/mL
[4]; 30 min after end of infusion
  SN-38 in serum bound to IgG, peak samples: > 96%
[4]; HPLC
  SN-38 in serum bound to IgG: > 95%
[4]; human, in vivo
  clearance of conjugate from serum: ≤ 3 days
[4]; one patient, 12 mg/kg
  SN-38 bound to IgG, peak sample: 4000 ng/mL
[4]; patient 15
  free SN-38, 30-min serum: 88 to 102 ng/mL
  free SN-38 as share of total SN-38: 2.4% to 3.6%
[4]; patient 15, 6th cycle, 6.0 mg/kg
  total SN-38, 30-min serum: 2,381 ng/mL
[4]; patient 15, C1D1, 12 mg/kg
  total SN-38, 30-min serum: 3,930 ng/mL
[4]; patient 15, C1D2, 9.0 mg/kg
  total SN-38, 30-min serum: 2,947 ng/mL
[4]; patient #25, 13.5 mg/kg
  SN-38G share of total SN-38+SN-38G: 11.6%
[4]; patient #25, 13.5 mg/kg, 11 peak samples
  total SN-38 (acid-hydrolyzed), average: 3309.8 ± 601.8 ng/mL
[4]; patient #25, 18 mg/kg
  SN-38G share of total unbound SN-38+SN-38G: 14.4%
  free SN-38 (non-hydrolyzed): 155.2 ng/mL
  total SN-38 (acid-hydrolyzed): 5,089 ng/mL
[4]; serum drawn immediately before next dose
  intact conjugate in trough samples: no sacituzumab govitecan could be detected
MDA-MB-468 TNBC tumors
  decrease in tumor size on re-treatment: 60%
